{"source": "patent US20210063414A1", "about": "“METHODS FOR PREVENTING AND/OR TREATING BONE LOSS CONDITIONS BY MODULATING IRISIN” (Dana-Farber Cancer Institute, Inc., priority 2018, published 2021)", "molecules": {"B1": {"name": "irisin: secreted cleaved form of FNDC5; recombinant human/mouse irisin with C-terminal his tag produced in HEK293 cells (protein)", "chain": "DSPSAPVNVTVRHLKANSAVVSWDVLEDEVVIGFAISQQKKDVRMLRFIQEVNTTTRSCALWDLEEDTEYIVHVQAISIQGQSPASEPVLFKTPREAEKMASKNKDEVTMKE", "modifications": "left off: small tags and cut ends", "notes": "secreted cleaved form of FNDC5; recombinant human/mouse irisin with C-terminal his tag produced in HEK293 cells"}}, "experiment_in_all_cases": "Crosslinking/co-immunoprecipitation/mass spectrometry (TMT quantitative proteomics) to identify irisin receptors", "assay_type_in_all_cases": "binding", "key": {"[1]": {"target": "T1, MLO-Y4 cell surface proteins (Mus musculus, UniProt Q8R1I1)", "T1 construct": "endogenous in cells; host or cells: MLO-Y4", "T1 sequence (Q8R1I1 1-64)": "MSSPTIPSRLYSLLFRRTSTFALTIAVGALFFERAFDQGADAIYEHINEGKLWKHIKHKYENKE", "details": "co-precipitated protein Uqcr10 (QCR9_MOUSE)", "method_in_brief": "(§1)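 Relative protein abundance came from 6-plex TMT MS3 quantitation on an Orbitrap Fusion Lumos, after in-gel trypsin digestion of Coomassie-stained SDS-PAGE lanes. Input was a Ni-NTA pulldown (250 mM imidazole elution) of lysates from murine MLO-Y4 cells. These cells were treated on ice with His-tagged irisin or adipsin (10 nM, 20 min) in serum-free medium, then crosslinked with 1.5 mM DTSSP for 30 min.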"}, "[2]": {"target": "T2, MLO-Y4 cell surface proteins (Mus musculus, UniProt Q8JZN5)", "T2 construct": "endogenous in cells; host or cells: MLO-Y4", "T2 sequence (Q8JZN5 42-625)": "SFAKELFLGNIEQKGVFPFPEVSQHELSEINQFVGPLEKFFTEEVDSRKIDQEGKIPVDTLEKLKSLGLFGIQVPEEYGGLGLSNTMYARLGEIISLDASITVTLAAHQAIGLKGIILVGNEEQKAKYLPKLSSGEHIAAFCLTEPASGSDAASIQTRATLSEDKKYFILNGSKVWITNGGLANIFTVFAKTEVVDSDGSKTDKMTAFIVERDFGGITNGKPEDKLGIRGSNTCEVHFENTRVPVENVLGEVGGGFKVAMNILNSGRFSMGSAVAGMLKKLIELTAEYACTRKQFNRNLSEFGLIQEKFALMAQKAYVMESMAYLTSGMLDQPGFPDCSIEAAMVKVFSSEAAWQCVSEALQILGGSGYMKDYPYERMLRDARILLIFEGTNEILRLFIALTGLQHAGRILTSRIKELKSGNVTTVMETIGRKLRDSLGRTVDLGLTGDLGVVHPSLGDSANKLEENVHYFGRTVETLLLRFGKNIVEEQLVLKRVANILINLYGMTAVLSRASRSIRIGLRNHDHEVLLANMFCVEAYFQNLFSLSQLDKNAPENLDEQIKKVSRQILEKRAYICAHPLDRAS", "details": "co-precipitated protein Acad9 (ACAD9_MOUSE)", "method_in_brief": "as §1"}, "[3]": {"target": "T3, MLO-Y4 cell surface proteins (Mus musculus, UniProt Q791V5)", "T3 construct": "endogenous in cells; host or cells: MLO-Y4", "T3 sequence (Q791V5 1-303)": "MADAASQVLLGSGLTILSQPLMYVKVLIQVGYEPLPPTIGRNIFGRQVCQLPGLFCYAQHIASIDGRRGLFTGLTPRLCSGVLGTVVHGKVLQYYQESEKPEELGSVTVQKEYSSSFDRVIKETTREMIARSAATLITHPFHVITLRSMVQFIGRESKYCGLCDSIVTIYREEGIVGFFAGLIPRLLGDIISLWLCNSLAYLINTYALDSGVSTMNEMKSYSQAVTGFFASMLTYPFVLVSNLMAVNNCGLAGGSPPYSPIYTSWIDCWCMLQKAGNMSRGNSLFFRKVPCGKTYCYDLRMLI", "details": "co-precipitated protein Mteh2 (MTCH2_MOUSE)", "method_in_brief": "as §1"}, "[4]": {"target": "T4, MLO-Y4 cell surface proteins (Mus musculus, UniProt Q6NWW9)", "T4 construct": "endogenous in cells; host or cells: MLO-Y4", "T4 sequence (Q6NWW9 whole entry, the tested form may be a part)": "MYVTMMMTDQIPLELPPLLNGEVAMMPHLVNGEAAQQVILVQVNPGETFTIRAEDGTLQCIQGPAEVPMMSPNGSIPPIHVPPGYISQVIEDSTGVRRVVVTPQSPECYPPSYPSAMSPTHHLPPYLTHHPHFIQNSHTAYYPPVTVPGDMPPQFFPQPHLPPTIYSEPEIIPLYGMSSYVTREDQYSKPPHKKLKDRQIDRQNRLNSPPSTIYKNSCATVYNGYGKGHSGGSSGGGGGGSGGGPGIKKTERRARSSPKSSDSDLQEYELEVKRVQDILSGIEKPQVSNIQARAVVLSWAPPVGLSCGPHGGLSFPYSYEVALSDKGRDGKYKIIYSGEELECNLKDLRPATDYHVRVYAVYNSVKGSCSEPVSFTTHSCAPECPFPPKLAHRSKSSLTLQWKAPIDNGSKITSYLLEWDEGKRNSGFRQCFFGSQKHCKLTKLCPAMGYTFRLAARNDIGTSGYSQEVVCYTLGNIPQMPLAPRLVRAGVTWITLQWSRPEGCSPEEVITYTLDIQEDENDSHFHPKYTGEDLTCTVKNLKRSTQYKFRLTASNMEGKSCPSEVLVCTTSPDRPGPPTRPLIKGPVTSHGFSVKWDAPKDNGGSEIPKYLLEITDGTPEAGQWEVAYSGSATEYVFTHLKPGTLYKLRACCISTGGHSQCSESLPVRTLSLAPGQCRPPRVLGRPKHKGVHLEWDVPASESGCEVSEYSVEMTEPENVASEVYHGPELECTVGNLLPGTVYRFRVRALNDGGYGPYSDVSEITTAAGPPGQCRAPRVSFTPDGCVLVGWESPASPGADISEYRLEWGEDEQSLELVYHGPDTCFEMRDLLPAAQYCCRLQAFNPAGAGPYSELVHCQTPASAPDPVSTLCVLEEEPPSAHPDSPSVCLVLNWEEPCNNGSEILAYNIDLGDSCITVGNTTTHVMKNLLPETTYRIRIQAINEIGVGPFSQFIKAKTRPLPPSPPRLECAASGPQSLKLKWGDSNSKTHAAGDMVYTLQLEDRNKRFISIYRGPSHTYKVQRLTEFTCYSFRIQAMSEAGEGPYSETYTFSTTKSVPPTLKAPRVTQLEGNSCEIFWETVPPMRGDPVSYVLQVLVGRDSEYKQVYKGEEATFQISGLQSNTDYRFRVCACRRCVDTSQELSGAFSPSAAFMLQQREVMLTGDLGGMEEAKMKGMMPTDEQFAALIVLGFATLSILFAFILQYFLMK", "details": "TMT ratio, Fndc3b Fibronectin type III domain-containing protein 3B", "method_in_brief": "as §1"}}}
{"molecule": "B1", "values": [{"measurement": "TMT signal-to-noise ratio", "setting": "[1]", "value": 125.477}, {"measurement": "irisin/adipsin TMT signal-to-noise ratio", "setting": "[1]", "value": 0.516}, {"measurement": "TMT signal-to-noise ratio", "setting": "[2]", "value": 61.8219}, {"measurement": "irisin/adipsin TMT signal-to-noise ratio", "setting": "[2]", "value": 0.486}, {"measurement": "TMT signal-to-noise ratio", "setting": "[3]", "value": 5.766}, {"measurement": "irisin/adipsin TMT signal-to-noise ratio", "setting": "[3]", "value": 0.057}, {"measurement": "irsin/adipsin", "setting": "[4]", "value": 2.88}]}
